In general, Km refers to the substrate concentration at which the rate is half of its maximum. One may read the kcat as the number of substrate molecules converted per active site and unit of time at saturation. What is called kcat/Km is the turnover number divided by the Michaelis constant.

From PMC3308961, “Chemical Mechanism of UDP-Galactopyranose Mutase from Trypanosoma cruzi: A Potential Drug Target against Chagas' Disease” (PLoS ONE, 2012) come the findings set out here.

In one data set the target is T1, TcUGM (Trypanosoma cruzi, UniProt Q4E1W2).
T1 construct: gene Tc00.1047053507993.160
T1 sequence (Q4E1W2 entry or part of it): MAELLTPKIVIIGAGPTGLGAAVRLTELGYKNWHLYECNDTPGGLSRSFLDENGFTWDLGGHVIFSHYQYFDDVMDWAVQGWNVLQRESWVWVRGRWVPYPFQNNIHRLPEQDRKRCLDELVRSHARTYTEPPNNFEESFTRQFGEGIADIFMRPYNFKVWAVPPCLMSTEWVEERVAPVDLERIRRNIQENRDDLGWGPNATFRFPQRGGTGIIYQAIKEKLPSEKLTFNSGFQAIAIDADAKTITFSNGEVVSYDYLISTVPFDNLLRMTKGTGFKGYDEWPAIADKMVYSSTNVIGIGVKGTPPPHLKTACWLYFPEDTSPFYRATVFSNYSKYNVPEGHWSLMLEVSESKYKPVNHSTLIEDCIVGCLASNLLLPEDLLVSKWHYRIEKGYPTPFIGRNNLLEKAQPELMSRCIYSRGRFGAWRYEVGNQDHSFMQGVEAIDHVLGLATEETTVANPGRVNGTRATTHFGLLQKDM
Kind of data set: UV-visible spectrum of purified enzyme; HPLC of released flavin. The class given is binding. To be noted: noncovalently bound, co-purified.

Data set [1] has as its system NC(=O)C1=CN([C@@H]2O[C@H](COP(=O)(O)OP(=O)(O)OC[C@H]3O[C@@H](n4cnc5c(N)ncnc54)[C@H](O)[C@@H]3O)[C@@H](O)[C@H]2O)C=CC1. The experiment in a line: purified protein. To be noted: oxidase activity (kox), air-saturated 50 mM phosphate pH 7.0, room temperature, no UDP-Galp.
For data set [2], the system named is NC(=O)C1=CN([C@@H]2O[C@H](COP(=O)(O)OP(=O)(O)OC[C@H]3O[C@@H](n4cnc5c(N)ncnc54)[C@H](OP(=O)(O)O)[C@@H]3O)[C@@H](O)[C@H]2O)C=CC1. Kind of data set: purified protein. To be noted: oxidase activity (kox), air-saturated 50 mM phosphate pH 7.0, room temperature, no UDP-Galp.
Data set [3] relates to O=c1ccn([C@@H]2O[C@H](COP(=O)(O)OP(=O)(O)O[C@H]3O[C@@H]([C@H](O)CO)[C@H](O)[C@H]3O)[C@@H](O)[C@H]2O)c(=O)[nH]1. The experiment in a line: purified protein. To be noted: reduced with 20 mM dithionite, 25 mM Hepes, 125 mM NaCl pH 7.5, 37°C.

`Cc1cc2nc3c(=O)[nH]c(=O)nc-3n(C[C@H](O)[C@H](O)[C@H](O)COP(=O)(O)OP(=O)(O)OC[C@H]3O[C@@H](n4cnc5c(N)ncnc54)[C@H](O)[C@@H]3O)c2cc1C` [FAD]: the “UV-visible spectrum of purified enzyme; HPLC of released flavin” value on TcUGM is given as “Recombinant TcUGM contained noncovalently bound flavin cofactor”.

Regarding “TcUGM (Trypanosoma cruzi strain CL Brener)”, in data set [1], the Km was found to be 90 ± 20 µM and the catalytic constant (kcat) amounted to 0.015 ± 0.002 s⁻¹. In addition, in data set [2], the Michaelis-Menten constant (Km) amounted to 15 ± 2 µM and the turnover number (kcat) was 0.030 ± 0.002 s⁻¹. Also, in data set [3], the Km was 140 ± 10 µM, the turnover number (kcat) is 13.4 ± 0.3 s⁻¹ and the specificity constant (kcat/Km) stood at 93000 ± 6000 M⁻¹ s⁻¹.
